# According to patent US20260000736A1, “PURIFIED LACTOFERRIN COMPOSITIONS AND METHODS OF USE” (Lactea Therapeutics LLC, priority 2023, published 2026):
# B1: Lactea-Lf: bovine lactoferrin purified from raw untreated milk by cation exchange chromatography and filtration according to Example 1 (protein)
# chain: APRKNVRWCTISQPEWFKCRRWQWRMKKLGAPSITCVRRAFALECIRAIAEKKADAVTLDGGMVFEAGRDPYKLRPVAAEIYGTKESPQTHYYAVAVVKKGSNFQLDQLQGRKSCHTGLGRSAGWVIPMGILRPYLSWTESLEPLQGAVAKFFSASCVPCIDRQAYPNLCQLCKGEGENQCACSSREPYFGYSGAFKCLQDGAGDVAFVKETTVFENLPEKADRDQYELLCLNNSRAPVDAFKECHLAQVPSHAVVARSVDGKEDLIWKLLSKAQEKFGKNKSRSFQLFGSPPGQRDLLFKDSALGFLRIPSKVDSALYLGSRYLTTLKNLRETAEEVKARYTRVVWCAVGPEEQKKCQQWSQQSGQNVTCATASTTDDCIVLVLKGEADALNLDGGYIYTAGKCGLVPVLAENRKTSKYSSLDCVLRPTEGYLAVAVVKKANEGLTWNSLKDKKSCHTAVDRTAGWNIPMGLIVNQTGSCAFDEFFSQSCAPGRDPKSRLCALCAGDDQGLDKCVPNSKEKYYGYTGAFRCLAEDVGDVAFVKNDTVWENTNGESTADWAKNLNREDFRLLCLDGTRKPVTEAQSCHLAVAPNHAVVSRSDRAAHVKQVLLHQQALFGKNGKNCPDKFCLFKSETKNLLFNDNTECLAKLGGRPTYEEYLGTEYVTAIANLKKCSTSPLLEACAFLTR
# How the values were obtained:
# [1] = test system: Candida albicans; assay: Biofilm formation, crystal violet assay; type: cell-based; conditions: 24 hours of growth
# [2] = DSC of additional batches, ratio of apo to holo-Lactoferrin; type: physicochemical; conditions: 5 mg/mL, 30° C. to 100° C. range
# Procedure: Additional batches of Lactea-Lf as described in the above examples and the relative ratio of apo to holo-Lactoferrin was assessed by Differential Scanning Calorimetry (DSC). Lactoferrin samples were loaded at 5 mg/mL into a NanoDSC (TI Instruments) and measured in the 30° C. to 100° C. range. […] It is likely that these peaks are smaller as the sample is highly impure or contains already denatured product.
# [3] = test system: Pseudomonas aeruginosa; assay: Biofilm formation, crystal violet assay; type: cell-based; conditions: 24 hours of growth
# [4] = test system: ECM of primary buccal cells; assay: ECM association by immunofluorescence in primary buccal cells; type: cell-based; conditions: 100 µg/mL for 1 hr at 37 C
# Procedure: Primary buccal cells were next cultured according to a standard protocol (e.g., see Russo et al. Cytotechnology. 2016 October; 68(5): 2105-2114; herein incorporated by reference for all purposes). […] Immunofluorescence imaging was performed as previously described.
# [5] = test system: cow with a large infected chronic wound on its leg; assay: Case study of a cow with a large infected chronic wound; type: in vivo; conditions: three daily treatments as freeze dried powder into the wound bed
# Procedure: Lactea Lactoferrin (Lactea-Lf) was produced as described in the above examples and freeze-dried by lyophilization into a powder. Lactea-Lf was then administered as the freeze-dried powder in a variety of animal wound contexts.
# For these daily treatments, Lf was applied once on each day to cover the open wound area.
# [6] = test system: E. coli 0157; assay: Biofilm formation, crystal violet assay; type: cell-based; conditions: for Biofilm Inhibition, Replicate 1 / Biofilm Inhibition, Replicate 2 / Biofilm Inhibition, Replicate 3: 24 hours
# Procedure: Lactoferrin was assessed for biofilm growth inhibition. To study the relative concentration dependent efficacy of Lactea-Lf and the Sigma Aldrich research standard Lactoferrin in inhibiting biofilm formation, Lf was added at concentrations ranging from 2 mg/mL to 0.31 mg/mL (2-fold serial dilution curve) to E. coli 0157 in LB seeded at 10∝CFU/mL and incubated for 37° C. for 24 hours. Lactea Lactoferrin (Lactea-Lf) was produced as described in the above examples. The biofilm was stained using a standard crystal violet assay. A quantification of the inhibition of biofilm formation (FIG. 18A) and an image of a representative plate (FIG. 18B) are shown.
# [7] = test system: Staphylococcus epidermidis; assay: Planktonic growth in culture, OD600; type: cell-based; conditions: 10-fold serial dilution of Lf, 18 hours
# [8] = test system: E. coli 0157; assay: Bacterial growth timecourse, OD600; type: cell-based; conditions: 1 mg/mL; for Bacterial Growth Timecourse, Replicate 1 / Bacterial Growth Timecourse, Replicate 2 / Bacterial Growth Timecourse, Replicate 3: OD600 relative to no treatment control at 24 hours
# Procedure: For a more detailed comparison of Lactea-Lf antimicrobial activity relative to the Sigma Aldrich Lactoferrin, Lactea-Lf and Sigma Aldrich Lactoferrin were incubated at 1 mg/mL with for E. coli 0157 in LB seeded at 10∝CFU/mL. […] Results were quantified and reported as a percent of the OD600 of the no treatment control at 24 hours for all timepoints.
# [9] = test system: Cryptococcus neoformans; assay: Biofilm formation, crystal violet assay; type: cell-based; conditions: 24 hours of growth
# [10] = test system: Escherichia coli; assay: Biofilm formation, crystal violet assay; type: cell-based; conditions: 24 hours of growth
# [11] = test system: Extra-Cellular Matrix (ECM) of Caco-2 cells; assay: Lactoferrin enrichment at the ECM by immunofluorescent imaging in Caco-2 cells; type: cell-based, human; conditions: varying concentrations, 37° C. for two hours
# Procedure: To assess bioactivity of Lactoferrin, particularly for its potential as an antiviral, binding to the ECM was assessed. Purified Lactoferrin was produced according to Example 1. Caco-2 cells, a human-derived cell culture, cells were allowed to grow for three days after plating on a coverslip such that the cells could proliferate, and the ECM could fully develop. Purified Lactoferrin was then added to the cells at varying concentrations at 37° C. for two hours to allow it to bind as theorized. To directly observe the localization of the API we used Immunofluorescent (IF) imaging and stained both the API and E-cadherin, a cell membrane marker.
# Primary localization internally was also observed at low concentrations, but given Lactoferrin has known intracellular roles and a receptor allowing for its uptake, fractional localization of Lactoferrin to the intracellular space was expected. To quantify the localization of the API, the absolute intensity of the fluorescent signal both just outside/along the E-cadherin mark as well as inside the cell was measured.
# [12] = type: binding; conditions: ITC, Lf 5 mg/mL in 100 mM MOPS buffer pH 7, HS approximately 100 µM
molecule,measurement,setting,value
B1,Inhibition of Biofilm Formation,[1],Strong (Lf was deemed to have a strong activity if biofilms were eliminated or significantly reduced to less than 90% less than no treatment at concentrations of 10 mg/mL or less after 24 hours of growth)
same,denaturation peak corresponding to apo-Lf,[2],~60 °C
same,denaturation peak corresponding to holo-Lf,[2],90 °C
same,"relative ratio of apo to holo-Lactoferrin, DSC peak pattern",[2],heavily skewed towards apo-Lf
same,Inhibition of Biofilm Formation,[3],Strong (Lf was deemed to have a strong activity if biofilms were eliminated or significantly reduced to less than 90% less than no treatment at concentrations of 10 mg/mL or less after 24 hours of growth)
same,ECM association of Lactoferrin (immunofluorescence imaging),[4],strong binding along the ECM
same,healing of infected chronic wound,[5],the wound was completely healed after it was checked after three weeks
same,concentrations at which potent biofilm inhibition is seen,"[6]; E. coli 0157, 24 hours",≥ 100 µg/mL
same,"Biofilm Inhibition, Replicate 1",[6]; [Lf] 0.031 mg/mL,0.6591
same,"Biofilm Inhibition, Replicate 2",[6]; [Lf] 0.031 mg/mL,0.8959
same,"Biofilm Inhibition, Replicate 3",[6]; [Lf] 0.031 mg/mL,0.7811
same,"Biofilm Inhibition, Replicate 1",[6]; [Lf] 0.063 mg/mL,0.1874
same,"Biofilm Inhibition, Replicate 2",[6]; [Lf] 0.063 mg/mL,0.1722
same,"Biofilm Inhibition, Replicate 3",[6]; [Lf] 0.063 mg/mL,0.2125
same,"Biofilm Inhibition, Replicate 1",[6]; [Lf] 0.125 mg/mL,0.03395
same,"Biofilm Inhibition, Replicate 2",[6]; [Lf] 0.125 mg/mL,0.1076
same,"Biofilm Inhibition, Replicate 3",[6]; [Lf] 0.125 mg/mL,0.0806
same,"Biofilm Inhibition, Replicate 1",[6]; [Lf] 0.25 mg/mL,0.04609
same,"Biofilm Inhibition, Replicate 2",[6]; [Lf] 0.25 mg/mL,0.07314
same,"Biofilm Inhibition, Replicate 3",[6]; [Lf] 0.25 mg/mL,0.07011
same,"Biofilm Inhibition, Replicate 1",[6]; [Lf] 0.5 mg/mL,0.04858
same,"Biofilm Inhibition, Replicate 2",[6]; [Lf] 0.5 mg/mL,0.0748
same,"Biofilm Inhibition, Replicate 3",[6]; [Lf] 0.5 mg/mL,0.08915
same,"Biofilm Inhibition, Replicate 1",[6]; [Lf] 1 mg/mL,0.02346
same,"Biofilm Inhibition, Replicate 2",[6]; [Lf] 1 mg/mL,0.09274
same,"Biofilm Inhibition, Replicate 3",[6]; [Lf] 1 mg/mL,0.02898
same,"Biofilm Inhibition, Replicate 1",[6]; [Lf] 2 mg/mL,0.006072
same,"Biofilm Inhibition, Replicate 2",[6]; [Lf] 2 mg/mL,0.01601
same,"Biofilm Inhibition, Replicate 3",[6]; [Lf] 2 mg/mL,−0.01297
same,Inhibition of Planktonic Growth,[7],None
same,inhibition of bacterial growth over time,[8]; E. coli 0157 in LB,near complete inhibition of bacterial growth up to 18 hours
same,time at which bacterial growth became observable / evident,[8]; E. coli 0157 in LB,21 h
same,"Bacterial Growth Timecourse, Replicate 1",[8]; 3 h,−0.00372
same,"Bacterial Growth Timecourse, Replicate 2",[8]; 3 h,−0.00129
same,"Bacterial Growth Timecourse, Replicate 3",[8]; 3 h,0.02246
same,"Bacterial Growth Timecourse, Replicate 1",[8]; 6 h,0.007916
same,"Bacterial Growth Timecourse, Replicate 2",[8]; 6 h,0.01196
same,"Bacterial Growth Timecourse, Replicate 3",[8]; 6 h,0.03279
same,"Bacterial Growth Timecourse, Replicate 1",[8]; 9 h,0.01583
same,"Bacterial Growth Timecourse, Replicate 2",[8]; 9 h,0.02246
same,"Bacterial Growth Timecourse, Replicate 3",[8]; 9 h,0.02019
same,"Bacterial Growth Timecourse, Replicate 1",[8]; 12 h,0.04443
same,"Bacterial Growth Timecourse, Replicate 2",[8]; 12 h,0.04136
same,"Bacterial Growth Timecourse, Replicate 3",[8]; 12 h,0.02633
same,"Bacterial Growth Timecourse, Replicate 1",[8]; 15 h,0.04976
same,"Bacterial Growth Timecourse, Replicate 2",[8]; 15 h,0.05816
same,"Bacterial Growth Timecourse, Replicate 3",[8]; 15 h,0.04685
same,"Bacterial Growth Timecourse, Replicate 1",[8]; 18 h,0.04152
same,"Bacterial Growth Timecourse, Replicate 2",[8]; 18 h,0.0399
same,"Bacterial Growth Timecourse, Replicate 3",[8]; 18 h,0.04281
same,"Bacterial Growth Timecourse, Replicate 1",[8]; 21 h,0.1997
same,"Bacterial Growth Timecourse, Replicate 2",[8]; 21 h,0.1696
same,"Bacterial Growth Timecourse, Replicate 3",[8]; 21 h,0.106
same,"Bacterial Growth Timecourse, Replicate 1",[8]; 24 h,0.3648
same,"Bacterial Growth Timecourse, Replicate 2",[8]; 24 h,0.2898
same,"Bacterial Growth Timecourse, Replicate 3",[8]; 24 h,0.2034
same,Inhibition of Biofilm Formation,[9],Strong (Lf was deemed to have a strong activity if biofilms were eliminated or significantly reduced to less than 90% less than no treatment at concentrations of 10 mg/mL or less after 24 hours of growth)
same,Inhibition of Biofilm Formation,[10],Strong (Lf was deemed to have a strong activity if biofilms were eliminated or significantly reduced to less than 90% less than no treatment at concentrations of 10 mg/mL or less after 24 hours of growth)
same,Lactoferrin localization at the ECM (IF imaging),[11],enrichment at the ECM was observed as concentration increased
same,binding to Heparan Sulfate,[12],far greater binding to Heparan Sulfate than the research standard
